Here are results for 2 substances from publication PMC6658569.

In this data set the test system is PurR (Escherichia coli K12?). Briefly: MST. Conditions: panel assigned by order of figure text (h before i); EMSA: binding buffer 250 mM Tris pH 6.8, 150 mM NaCl, 5 mM EDTA, 10 mM DTT, 50% glycerol; 8% PAGE in 20 mM Tris-borate, 1 mM EDTA pH 8.0, 4 C, 80 V, EB stain …. On the technique in general: Mobility shift assays separate free from complexed probe on a gel.

pKd: −log10 of the molar value.

What is called pKd is −log10 of the Kd, conventionally taken in molar units. Low readings indicate a high Kd, high ones a low Kd. The substance kbl promoter (208 bp) had a pKd of 5.15.
In the case of glyA promoter (212 bp), the pKd was 3.62.
